Assay results as given in FireProtDB (doi:10.1006/jmbi.1995.0599).

Details: Homo sapiens; pH 2.7; Thermal; DSC; glycine 0.05 M; reversible: yes; whole UniProt chain shown

B1: Lysozyme C wild type, P61626 (protein)
chain: MKALIVLGLVLLSVTVQGKVFERCELARTLKRLGMDGYRGISLANWMCLAKWESGYNTRATNYNAGDRSTDYGIFQINSRYWCNDGKTPGAVNACHLSCSALLQDNIADAVACAKRVVRDPQGIRAWVAWRNRCQNRDVRQYVQGCGV
- Tm: 64.9 °C
- heat capacity change of unfolding: 1.58 kcal/mol/K
- unfolding enthalpy (calorimetric): 114 kcal/mol
- unfolding enthalpy (van 't Hoff): 120 kcal/mol
